# Measured values published in paper doi:10.1101/2022.06.29.497979, “Cryo-EM structure of a eukaryotic zinc transporter at a low pH suggests its Zn^2+-releasing mechanism” (bioRxiv, 2022).
# B1: ZnT8 from Xenopus tropicalis, xtZnT8-BRIL fusion protein (natural protein, UniProt Q5XHB4 1-374, looked up)
# chain: MKGSEEAYLVSDKATKMYSLTKDSEKNHPSKPPLQDEENPQSKYHCHNNNKKAYDARQREQTFAKKKLCIASLICFVFISAEIVGGYIAGSLAVVTDAAHLLVDLSSFFISLCSLWLSSKSSTTRLTFGWHRAEILGALMSVITIWLVTGVLVYLACERLIRPDYTIDGTVMLITSACALGANLVLALILHQSGHGHSHAGGKHEHMASEYKPQTNASIRAAFIHVIGDLFQSISVLISALIIYFKPEYKMADPICTFIFSIFVLITTVTVLRDLLTVLMEGTPRGIHYSDVKQSILAVDGVKSVHSLHLWALTMNQVILSAHIATDIVGESKRILKDVTQNVFARFPFHSVTIQVEPIEDQSPECMFCYEPTQ
# notes: Zinc transporter 8 (ZnT8, SLC30A8) from Xenopus tropicalis, full-length wild type, NCBI NP_001011041.1; BRIL was fused to the carboxy-end of xtZnT8 before the TEV site and His10; it is written as a carrier under tags; also called zinc transporter 8; xtZnT8-Zn^2+; not shown: BRIL (bacterial cytochrome b562RIL), C-terminal, kept
# Target: the molecule itself
# Assay: cryo-EM structure; xtZnT8-Zn^2+: single-particle cryo-EM, 20 mM Tris-HCl pH 7.5, 150 mM NaCl, 5 mM beta-mercaptoethanol, 0.5 mM DDM, 1 mM ZnSO4; 3.9 A
protein,measurement,value
B1,stoichiometry N,2
